According to US20190382482A1 (GlaxoSmithKline, published 2019):

T1: Human LAG-3 on cells (human, UniProt P18627 23-525)
T1 construct: whole, on cells; also called human LAG-3 expressing EL4 cells
T1 sequence (looked up): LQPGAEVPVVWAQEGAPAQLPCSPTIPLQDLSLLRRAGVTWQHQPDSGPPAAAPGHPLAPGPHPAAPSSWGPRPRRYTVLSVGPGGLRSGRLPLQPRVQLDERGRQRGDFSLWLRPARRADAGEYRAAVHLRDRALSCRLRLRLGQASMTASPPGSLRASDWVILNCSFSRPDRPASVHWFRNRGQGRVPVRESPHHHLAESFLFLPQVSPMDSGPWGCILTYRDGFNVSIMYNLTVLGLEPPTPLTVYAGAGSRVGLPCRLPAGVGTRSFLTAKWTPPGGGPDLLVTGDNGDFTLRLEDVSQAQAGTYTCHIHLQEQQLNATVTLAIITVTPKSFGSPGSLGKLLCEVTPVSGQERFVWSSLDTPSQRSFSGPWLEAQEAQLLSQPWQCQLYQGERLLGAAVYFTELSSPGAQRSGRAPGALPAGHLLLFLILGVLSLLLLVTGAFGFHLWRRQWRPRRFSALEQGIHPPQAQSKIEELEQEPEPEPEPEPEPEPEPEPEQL

T2: Recombinant human LAG-3 ECD-His6 (human, UniProt P18627 23-433)
T2 construct: Entry holds the ECD with the C-terminal His6; also called LAG-3-His; recombinant human LAG-3-His
T2 sequence: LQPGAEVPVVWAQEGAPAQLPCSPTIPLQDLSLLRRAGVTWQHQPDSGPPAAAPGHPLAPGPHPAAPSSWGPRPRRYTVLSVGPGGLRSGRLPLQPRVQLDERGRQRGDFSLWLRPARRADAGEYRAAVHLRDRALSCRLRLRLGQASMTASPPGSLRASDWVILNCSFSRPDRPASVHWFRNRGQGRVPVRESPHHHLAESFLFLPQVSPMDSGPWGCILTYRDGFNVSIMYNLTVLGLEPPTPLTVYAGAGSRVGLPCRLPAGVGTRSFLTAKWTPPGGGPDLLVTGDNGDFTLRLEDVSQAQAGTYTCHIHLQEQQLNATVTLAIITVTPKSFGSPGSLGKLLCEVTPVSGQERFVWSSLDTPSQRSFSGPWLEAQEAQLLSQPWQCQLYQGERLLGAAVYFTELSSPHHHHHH


Key:
Human LAG-3 on cells = molecular target: T1, Human LAG-3 on cells; experiment: Flow cytometry (MFI dose response) on human LAG-3 expressing EL4 cells
Method: Human LAG-3 expressing EL4 cells were incubated with either IMP731, H5L7WT or H5L7BW Alexa647-conjugated antibodies at varying concentrations of up to 50 μg/ml for 30 minutes at room temperature. Cells were washed with FACS buffer (PBS+0.5% BSA) to remove unbound antibody.
EL4 cells and CD3⁺ T cells were analysed by FACS using a Beckman Coulter FC 500 flow cytometer. FACS raw data were analysed using CXP Analysis software (Beckman Coulter). The data was initially plotted on a forward-scatter versus side-scatter plot and the population of cells of interest were gated. This gated population was then plotted as a histogram displaying fluorescence intensity and the mean fluorescence intensity (MFI) calculated. MFI values were then plotted in GraphPad Prism 5 software to generate dose response curves.

[1] = molecular target: T2, Recombinant human LAG-3 ECD-His6; experiment: SPR Biacore T100, Anova comparison of kd, 3 runs
Method: (§1) Wild type fucosylated and afucosylated antibodies were compared for their ability to bind to recombinant human LAG-3 ECD with a C-terminal His6 (SEQ ID NO:51) using the Biacore™ T100 (GE Healthcare™). Protein A was immobilised on a CM5 chip by primary amine coupling. This surface was then used to capture the humanised antibodies. Recombinant human LAG-3 ECD-His6 was then passed over the captured antibodies at 32, 8, 2, 0.5 and 0.125 nM and regeneration was carried out using 50 mM NaOH. The binding curves were double referenced with buffer injection (i.e. 0 nM) and the data was fitted to the T100 analysis software using the 1:1 model. The run was carried out at 25° C., using HBS-EP as the running buffer.
(§2) In order to investigate the statistical significance of this kinetic data, this experiment was repeated 3 times with the same batch of the four antibodies and the chimeric control. KD, ka and kd parameters were each log (base 10) transformed prior to separate statistical analyses. For each parameter, a mixed model analysis of variance (‘Anova’) was performed on transformed data, including terms for Run (random block effect) and Antibody.

[2] = molecular target: T2, Recombinant human LAG-3 ECD-His6; experiment: SPR Biacore T100, Anova comparison of KD, 3 runs
Method: as §1, §2

EC50 (read off the curve) (Human LAG-3 on cells) | kd ratio against H5L7 [1] | KD ratio against H5L7 [2] | fold decrease of kd against IMP731 [1] | kd ratio against IMP731 [1] | KD ratio against IMP731 [2] | fold decrease of KD against IMP731 [2] | Binder
~0.02 mg/L | 1.12 | 1.05 |  |  |  |  | H5L7BW (antibody, human IgG1, kappa, V domains shown, afucosylated Fc glycan (expressed in BioWa Potelligent FUT8 knock-out CHO cell line), differs only by lack of fucose; also called afucosylated H5L7BW; afucosylated H5L7) VH: QVQLQESGPGLVKPSETLSLTCTVSGFSLTAYGVNWIRQPPGKGLEWIGMIWDDGSTDYDSALKSRVTISVDTSKNQFSLKLSSVTAADTAVYYCAREGDVAFDYWGQGTLVTVSS VL: DIQMTQSPSSLSASVGDRVTITCKSSQSLLNPSNQKNYLAWYQQKPGKAPKLLVYFASTRDSGVPSRFSGSGSGTDFTLTISSLQPEDFATYYCLQHFGTPPTFGQGTKLEIKR
~0.02 mg/L |  |  | ~10 fold | 0.155 | 0.0774 | 10 fold | H5L7 (antibody, human IgG1, kappa, V domains shown, wild type fucosylated form; also called H5L7WT; fucosylated H5L7) VH: QVQLQESGPGLVKPSETLSLTCTVSGFSLTAYGVNWIRQPPGKGLEWIGMIWDDGSTDYDSALKSRVTISVDTSKNQFSLKLSSVTAADTAVYYCAREGDVAFDYWGQGTLVTVSS VL: DIQMTQSPSSLSASVGDRVTITCKSSQSLLNPSNQKNYLAWYQQKPGKAPKLLVYFASTRDSGVPSRFSGSGSGTDFTLTISSLQPEDFATYYCLQHFGTPPTFGQGTKLEIKR
~0.01 mg/L |  |  |  |  |  |  | IMP731 (antibody, human IgG1, kappa, V domains shown, Chimeric anti-LAG-3 antibody, parent of the humanised variants; also called chimeric IMP731; chimeric control) VH: QVQLKESGPGLVAPSQSLSITCTVSGFSLTAYGVNWVRQPPGKGLEWLGMIWDDGSTDYNSALKSRLSISKDNSKSQVFLKMNSLQTDDTARYYCAREGDVAFDYWGQGTTLTVSS VL: not shown
